Source: article PMC9283937
Values joined by “and” are separate entries in the source; they are usually repeats but may differ in a detail not shown here. Identical values can stand only once.

Tests used:
[1] = biological target: LarE from Thermotoga maritima, C-terminal His6-tagged (Thermotoga maritima); assay: native MS; nondenaturing nano-ESI-MS (Q Exactive UHMR) under anoxic atmosphere; cluster-assembled His6-tagged LarETm after anaerobic incubation with IscSEc and L-cysteine; CID 15 eV
[2] = biological target: LarE from Thermotoga maritima, C-terminal His6-tagged (Thermotoga maritima); assay: SEC-MALS; Superdex 200 Increase 10/300 GL, 100 mM Tris-HCl pH 7.2, 300 mM NaCl, 0.5 ml/min; miniDAWN TREOS detector

stoichiometry N [1]: 2 and 4 and 6 | stoichiometry N [2]: 2
Substance: LarE from Thermotoga maritima, C-terminal His6-tagged (enzyme)
